# Patent publication US20240247080A1, “GLP1/GIP/NPY2 RECEPTOR TRIPLE AGONISTS” (Boehringer Ingelheim International GmbH, priority 2022, published 2024)
# Starred links: 1 amine or outer side, 2 acyl side, 3 side chain; linkers in the order of their positions; H or OH if unused. Non-standard residues stand in square brackets, D forms with d. Groups on a side chain read outwards from the residue. No end group written: not given here. *: point of attachment. C18 diacid = O=C(O)CCCCCCCCCCCCCCCCC(=O)*; γGlu = O=C(O)[C@H](CCC(=O)[*:2])N[*:1]; εLys = N[C@@H](CCCCN[*:1])C(=O)[*:2]; AEEA = NCCOCCOCC(=O)O; Aib = CC(C)(N)C(=O)O
# B1: Compound 166 (peptide)
# peptide: Y[Aib]EGTFTSDYSI[Aib]LEKQAQ[Aib]AFVEWLIK([AEEA-AEEA-γGlu-γGlu-γGlu-C18 diacid])GGPESGASLRHYYNWLTRQRY-NH2
# B2: Compound 155 (peptide)
# peptide: Y[Aib]EGTFTSDYSI[Aib]LEKQAQ[Aib]AFVQWLIK([εLys-Glu-Glu-Glu-Glu-Glu-C18 diacid])GGPEEGASLRHYYNWLTRQRY-NH2
# B3: Compound 163 (peptide)
# peptide: Y[Aib]EGTFTSDYSI[Aib]LEKQAQ[Aib]AFVEWLIK([AEEA-AEEA-γGlu-γGlu-γGlu-γGlu-C18 diacid])GGPESGASLRHYYNWLTRQRY-NH2
# B4: Compound 152 (peptide)
# peptide: Y[Aib]EGTFTSDYSI[Aib]LEKQAQ[Aib]AFVEWLIK([εLys-γGlu-γGlu-γGlu-γGlu-γGlu-C18 diacid])GGPESGASLRHYYNWLTRQRY-NH2
# B5: Compound 158 (peptide)
# peptide: Y[Aib]EGTFTSDYSI[Aib]LEKQAQ[Aib]AFVEWLIK([AEEA-AEEA-γGlu-γGlu-γGlu-γGlu-C18 diacid])GGPSSPASLRHYYNWLTRQRY-NH2
# B6: Compound 154 (peptide)
# peptide: Y[Aib]EGTFTSDYSI[Aib]LEKQAQ[Aib]EFVQWLIK([εLys-γGlu-γGlu-γGlu-γGlu-γGlu-C18 diacid])GGPSEGASLRHYYNWLTRQRY-NH2
# B7: Compound 159 (peptide)
# peptide: Y[Aib]EGTFTSDYSI[Aib]LEKQAQ[Aib]EFVEWLIK([εLys-γGlu-γGlu-γGlu-γGlu-γGlu-C18 diacid])GGPSSGASLRHYYNWLTRQRY-NH2
# B8: Compound 161 (peptide)
# peptide: Y[Aib]EGTFTSDYSI[Aib]LEKQAQ[Aib]AFVEWLIK([AEEA-AEEA-γGlu-γGlu-γGlu-γGlu-C18 diacid])GGPEEPASLRHYYNWLTRQRY-NH2
# B9: Compound 153 (peptide)
# peptide: YXEGTFTSDYSIXLEKQAQXEFVQWLIKGGPSEGASLRHYYNWLTRQRY
# modifications: Aib at 2, 13, 20; K28 side chain: C18DA-gGlu-gGlu-gGlu-gGlu-gGlu-gGlu-eLys; C-terminal NH2
# Molecular target: T1, human GIP receptor (human, UniProt P48546 22-466)
# T1 sequence (looked up): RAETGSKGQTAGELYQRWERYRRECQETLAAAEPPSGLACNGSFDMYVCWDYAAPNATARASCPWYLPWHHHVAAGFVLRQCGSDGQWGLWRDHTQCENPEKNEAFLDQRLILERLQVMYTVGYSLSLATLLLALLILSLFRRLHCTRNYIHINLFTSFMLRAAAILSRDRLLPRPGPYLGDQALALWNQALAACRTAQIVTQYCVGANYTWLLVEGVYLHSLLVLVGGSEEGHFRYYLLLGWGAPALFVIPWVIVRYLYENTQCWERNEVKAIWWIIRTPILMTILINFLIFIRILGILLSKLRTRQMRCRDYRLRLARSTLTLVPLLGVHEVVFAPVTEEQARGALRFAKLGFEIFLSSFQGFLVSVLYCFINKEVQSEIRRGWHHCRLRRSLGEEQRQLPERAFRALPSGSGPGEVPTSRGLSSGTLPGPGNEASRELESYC
# Test: cell-based or functional assay
Binder,EC50 CreLuc hGIPR 0.5% hP [nM],EC50 CreLuc hGIPR 100% hP [nM]
B1,0.08,0.64
B2,0.14,1.43
B3,0.26,0.87
B4,0.4,0.96
B5,0.11,0.84
B6,0.4,1.07
B7,0.35,0.91
B8,0.14,1.23
B9,0.22,1.21

# Molecular target: T2, human neuropeptide Y2 receptor (human, UniProt P49146 1-381)
# T2 sequence (looked up): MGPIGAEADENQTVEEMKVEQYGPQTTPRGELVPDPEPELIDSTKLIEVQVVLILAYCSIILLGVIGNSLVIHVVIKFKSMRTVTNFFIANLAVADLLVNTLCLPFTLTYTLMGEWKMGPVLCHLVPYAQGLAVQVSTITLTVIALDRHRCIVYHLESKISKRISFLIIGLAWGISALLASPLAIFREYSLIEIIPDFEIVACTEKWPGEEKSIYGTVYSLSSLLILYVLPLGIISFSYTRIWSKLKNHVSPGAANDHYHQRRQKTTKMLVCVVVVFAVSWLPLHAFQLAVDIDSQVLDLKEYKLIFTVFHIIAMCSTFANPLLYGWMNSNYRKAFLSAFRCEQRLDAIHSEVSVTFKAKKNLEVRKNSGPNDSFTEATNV
# Test: cell-based or functional assay
Binder,EC50 CreLuc hNPY2R 0.5% hP [nM],EC50 CreLuc hNPY2R 100% hP [nM]
B1,12.5,57.9
B2,17,95
B3,21.3,55.2
B4,12.6,39.1
B5,15.8,39.9
B6,10.7,21.6
B7,13.8,34.6
B8,11.5,41.7
B9,18.9,58.5

# Molecular target: human GLP-1 receptor (human, UniProt P43220 24-463)
# Test: cell-based or functional assay
Binder,EC50 CreLuc hGLP1R 0.5% hP [nM],EC50 CreLuc hGLP1R 100% hP [nM]
B1,0.07,4.24
B2,0.15,7.18
B3,0.1,4.72
B4,0.13,4.24
B5,0.09,3.25
B6,0.26,6.65
B7,0.19,5.17
B8,0.21,8.06
B9,0.25,6.12
